From PMC4123461 (Experimental eye research, 2014)

T1: Best1-CFP (human, UniProt O76090 1-585)
T1 sequence (looked up): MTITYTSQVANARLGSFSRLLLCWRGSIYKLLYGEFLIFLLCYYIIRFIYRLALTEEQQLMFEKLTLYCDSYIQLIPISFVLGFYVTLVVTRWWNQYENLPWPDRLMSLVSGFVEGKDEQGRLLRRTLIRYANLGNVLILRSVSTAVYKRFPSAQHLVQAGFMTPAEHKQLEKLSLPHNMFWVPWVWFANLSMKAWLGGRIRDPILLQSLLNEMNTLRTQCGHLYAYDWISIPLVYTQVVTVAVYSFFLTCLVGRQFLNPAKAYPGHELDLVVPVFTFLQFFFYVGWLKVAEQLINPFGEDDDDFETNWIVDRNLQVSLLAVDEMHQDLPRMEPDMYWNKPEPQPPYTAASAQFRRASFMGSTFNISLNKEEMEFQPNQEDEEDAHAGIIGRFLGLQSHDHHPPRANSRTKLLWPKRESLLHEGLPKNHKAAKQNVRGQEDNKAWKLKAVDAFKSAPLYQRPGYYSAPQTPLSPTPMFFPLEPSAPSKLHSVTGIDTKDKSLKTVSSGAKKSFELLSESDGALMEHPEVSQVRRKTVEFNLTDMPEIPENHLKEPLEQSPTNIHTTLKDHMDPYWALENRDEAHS


Target: T1, Best1-CFP
Test: FRET or BRET

FRET efficiency (%E) [%] | Binder
13.6 | WT Best1-YFP (natural protein, human, UniProt O76090 1-585, looked up) MTITYTSQVANARLGSFSRLLLCWRGSIYKLLYGEFLIFLLCYYIIRFIYRLALTEEQQLMFEKLTLYCDSYIQLIPISFVLGFYVTLVVTRWWNQYENLPWPDRLMSLVSGFVEGKDEQGRLLRRTLIRYANLGNVLILRSVSTAVYKRFPSAQHLVQAGFMTPAEHKQLEKLSLPHNMFWVPWVWFANLSMKAWLGGRIRDPILLQSLLNEMNTLRTQCGHLYAYDWISIPLVYTQVVTVAVYSFFLTCLVGRQFLNPAKAYPGHELDLVVPVFTFLQFFFYVGWLKVAEQLINPFGEDDDDFETNWIVDRNLQVSLLAVDEMHQDLPRMEPDMYWNKPEPQPPYTAASAQFRRASFMGSTFNISLNKEEMEFQPNQEDEEDAHAGIIGRFLGLQSHDHHPPRANSRTKLLWPKRESLLHEGLPKNHKAAKQNVRGQEDNKAWKLKAVDAFKSAPLYQRPGYYSAPQTPLSPTPMFFPLEPSAPSKLHSVTGIDTKDKSLKTVSSGAKKSFELLSESDGALMEHPEVSQVRRKTVEFNLTDMPEIPENHLKEPLEQSPTNIHTTLKDHMDPYWALENRDEAHS
14.8 | A146L Best1-YFP (natural protein, human, UniProt O76090 1-585, looked up) MTITYTSQVANARLGSFSRLLLCWRGSIYKLLYGEFLIFLLCYYIIRFIYRLALTEEQQLMFEKLTLYCDSYIQLIPISFVLGFYVTLVVTRWWNQYENLPWPDRLMSLVSGFVEGKDEQGRLLRRTLIRYANLGNVLILRSVSTLVYKRFPSAQHLVQAGFMTPAEHKQLEKLSLPHNMFWVPWVWFANLSMKAWLGGRIRDPILLQSLLNEMNTLRTQCGHLYAYDWISIPLVYTQVVTVAVYSFFLTCLVGRQFLNPAKAYPGHELDLVVPVFTFLQFFFYVGWLKVAEQLINPFGEDDDDFETNWIVDRNLQVSLLAVDEMHQDLPRMEPDMYWNKPEPQPPYTAASAQFRRASFMGSTFNISLNKEEMEFQPNQEDEEDAHAGIIGRFLGLQSHDHHPPRANSRTKLLWPKRESLLHEGLPKNHKAAKQNVRGQEDNKAWKLKAVDAFKSAPLYQRPGYYSAPQTPLSPTPMFFPLEPSAPSKLHSVTGIDTKDKSLKTVSSGAKKSFELLSESDGALMEHPEVSQVRRKTVEFNLTDMPEIPENHLKEPLEQSPTNIHTTLKDHMDPYWALENRDEAHS
12.4 | N179del Best1-YFP (natural protein, human, UniProt O76090 1-585, looked up) MTITYTSQVANARLGSFSRLLLCWRGSIYKLLYGEFLIFLLCYYIIRFIYRLALTEEQQLMFEKLTLYCDSYIQLIPISFVLGFYVTLVVTRWWNQYENLPWPDRLMSLVSGFVEGKDEQGRLLRRTLIRYANLGNVLILRSVSTAVYKRFPSAQHLVQAGFMTPAEHKQLEKLSLPHMFWVPWVWFANLSMKAWLGGRIRDPILLQSLLNEMNTLRTQCGHLYAYDWISIPLVYTQVVTVAVYSFFLTCLVGRQFLNPAKAYPGHELDLVVPVFTFLQFFFYVGWLKVAEQLINPFGEDDDDFETNWIVDRNLQVSLLAVDEMHQDLPRMEPDMYWNKPEPQPPYTAASAQFRRASFMGSTFNISLNKEEMEFQPNQEDEEDAHAGIIGRFLGLQSHDHHPPRANSRTKLLWPKRESLLHEGLPKNHKAAKQNVRGQEDNKAWKLKAVDAFKSAPLYQRPGYYSAPQTPLSPTPMFFPLEPSAPSKLHSVTGIDTKDKSLKTVSSGAKKSFELLSESDGALMEHPEVSQVRRKTVEFNLTDMPEIPENHLKEPLEQSPTNIHTTLKDHMDPYWALENRDEAHS
